Target: mouse PARP13 ZnF5-WWE1-WWE2 (residues 476 to 673) (mouse) (UniProt Q3UPF5)
Test: SEC-MALS

- percent of the scattering mass in the dimer peak: 4%
- stoichiometry N: 2
Substance: mouse PARP13 ZnF5-WWE1-WWE2 (residues 476 to 673) (from UniProt Q3UPF5 476-673) (domain or fragment)
